Assay results reported in publication PMC7345789.
Changes are numbered by the printed parent chain. Each block holds one binder with its values, some of them ahead of it.

Target: Gab2 (Homo sapiens)
Experiment: flow

B2: SHP2 N-SH2, Q06124 (protein)
chain: WFHPNITGVEAENLLLTRGVDGSFLARPSKSNPGDFTLSVRRNGAVTHIKIQNTGDYYDLYGGEKFASLAELVQYYMEHHGQLKEKNGDVIELKYPL
Kd: 110 nM

B3: SHP2 N-SH2, Q06124 (protein)
chain: B2 chain with S68T, L83A
Kd: 730 nM

B4: SHP2 N-SH2, Q06124 (protein)
chain: B2 chain with V9A, S68T
Kd: 160 nM

B5: SHP2 N-SH2, Q06124 (protein)
chain: B2 chain with T54S, S68T
Kd: 120 nM

B10: SHP2 N-SH2, Q06124 (protein)
chain: B2 chain with L14A, S68T
Kd: 170 nM

B11: SHP2 N-SH2, Q06124 (protein)
chain: B2 chain with S68T, V73A
Kd: 190 nM

B12: SHP2 N-SH2, Q06124 (protein)
chain: B2 chain with S68T, L69A
Kd: 210 nM

B13: SHP2 N-SH2, Q06124 (protein)
chain: B2 chain with L60A, S68T
Kd: 860 nM

B15: SHP2 N-SH2, Q06124 (protein)
chain: B2 chain with A67G, S68T
Kd: 170 nM

B16: SHP2 N-SH2, Q06124 (protein)
chain: B2 chain with V40A, S68T
Kd: 230 nM

B17: SHP2 N-SH2, Q06124 (protein)
chain: B2 chain with I49V, S68T
Kd: 150 nM

B21: SHP2 N-SH2, Q06124 (protein)
chain: B2 chain with V20A, S68T
Kd: 100 nM

B22: SHP2 N-SH2, Q06124 (protein)
chain: B2 chain with S68T, V90A
Kd: 130 nM

B23: SHP2 N-SH2, Q06124 (protein)
chain: B2 chain with S68T, A70G
Kd: 110 nM

More lines, now with the values ahead:

Kd: 30 nM
B1: SHP2 N-SH2, Q06124 (protein)
chain: B2 chain with I51V, S68T

Kd: 70 nM
B6: SHP2 N-SH2, Q06124 (protein)
chain: B2 chain with A45G, S68T

Kd: 5 nM
B7: SHP2 N-SH2, Q06124 (protein)
chain: B2 chain with T37S, S68T

Kd: 80 nM
B8: SHP2 N-SH2, Q06124 (protein)
chain: B2 chain with I6V, S68T

Kd: 100 nM
B9: SHP2 N-SH2, Q06124 (protein)
chain: B2 chain with T17S, S68T

Kd: 10 nM
B14: SHP2 N-SH2, Q06124 (protein)
chain: B2 chain with T47S, S68T

Kd: 70 nM
B18: SHP2 N-SH2, Q06124 (protein)
chain: B2 chain with A26G, S68T

Kd: 100 nM
B19: SHP2 N-SH2, Q06124 (protein)
chain: B2 chain with S68T, I91V

Kd: 80 nM
B20: SHP2 N-SH2, Q06124 (protein)
chain: B2 chain with T7S, S68T
